From patent US20150258211

System: GST-GFP fusion protein expressed from pJB-HTS-GFP (GST, hexa-histidine tag, thrombin cleavage site LVPRGS, GFP) [GST: P08515]
Sequence (P08515 whole entry, looked up, the tested form may be a part): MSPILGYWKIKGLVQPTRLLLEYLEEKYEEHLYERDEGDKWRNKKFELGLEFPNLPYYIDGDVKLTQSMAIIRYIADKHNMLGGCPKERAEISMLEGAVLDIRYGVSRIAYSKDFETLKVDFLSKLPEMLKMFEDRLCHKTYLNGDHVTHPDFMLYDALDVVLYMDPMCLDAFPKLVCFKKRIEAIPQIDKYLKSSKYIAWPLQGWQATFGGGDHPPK

thrombin
Michaelis-Menten constant (Km) of thrombin cleavage of GST-GFP associated with PEGDA-GSH microspheres, SDS-PAGE densitometry: significantly increased from approximately 0.18 µM to 0.30 µM
Michaelis-Menten constant (Km) of thrombin cleavage of free GST-GFP, SDS-PAGE densitometry: significantly increased from approximately 0.18 µM to 0.30 µM
